Assay results reported in publication PMC6862324.

Biological target: T1, FLAG-tagged human NLRP1 (human), Q9C000
T1 chain: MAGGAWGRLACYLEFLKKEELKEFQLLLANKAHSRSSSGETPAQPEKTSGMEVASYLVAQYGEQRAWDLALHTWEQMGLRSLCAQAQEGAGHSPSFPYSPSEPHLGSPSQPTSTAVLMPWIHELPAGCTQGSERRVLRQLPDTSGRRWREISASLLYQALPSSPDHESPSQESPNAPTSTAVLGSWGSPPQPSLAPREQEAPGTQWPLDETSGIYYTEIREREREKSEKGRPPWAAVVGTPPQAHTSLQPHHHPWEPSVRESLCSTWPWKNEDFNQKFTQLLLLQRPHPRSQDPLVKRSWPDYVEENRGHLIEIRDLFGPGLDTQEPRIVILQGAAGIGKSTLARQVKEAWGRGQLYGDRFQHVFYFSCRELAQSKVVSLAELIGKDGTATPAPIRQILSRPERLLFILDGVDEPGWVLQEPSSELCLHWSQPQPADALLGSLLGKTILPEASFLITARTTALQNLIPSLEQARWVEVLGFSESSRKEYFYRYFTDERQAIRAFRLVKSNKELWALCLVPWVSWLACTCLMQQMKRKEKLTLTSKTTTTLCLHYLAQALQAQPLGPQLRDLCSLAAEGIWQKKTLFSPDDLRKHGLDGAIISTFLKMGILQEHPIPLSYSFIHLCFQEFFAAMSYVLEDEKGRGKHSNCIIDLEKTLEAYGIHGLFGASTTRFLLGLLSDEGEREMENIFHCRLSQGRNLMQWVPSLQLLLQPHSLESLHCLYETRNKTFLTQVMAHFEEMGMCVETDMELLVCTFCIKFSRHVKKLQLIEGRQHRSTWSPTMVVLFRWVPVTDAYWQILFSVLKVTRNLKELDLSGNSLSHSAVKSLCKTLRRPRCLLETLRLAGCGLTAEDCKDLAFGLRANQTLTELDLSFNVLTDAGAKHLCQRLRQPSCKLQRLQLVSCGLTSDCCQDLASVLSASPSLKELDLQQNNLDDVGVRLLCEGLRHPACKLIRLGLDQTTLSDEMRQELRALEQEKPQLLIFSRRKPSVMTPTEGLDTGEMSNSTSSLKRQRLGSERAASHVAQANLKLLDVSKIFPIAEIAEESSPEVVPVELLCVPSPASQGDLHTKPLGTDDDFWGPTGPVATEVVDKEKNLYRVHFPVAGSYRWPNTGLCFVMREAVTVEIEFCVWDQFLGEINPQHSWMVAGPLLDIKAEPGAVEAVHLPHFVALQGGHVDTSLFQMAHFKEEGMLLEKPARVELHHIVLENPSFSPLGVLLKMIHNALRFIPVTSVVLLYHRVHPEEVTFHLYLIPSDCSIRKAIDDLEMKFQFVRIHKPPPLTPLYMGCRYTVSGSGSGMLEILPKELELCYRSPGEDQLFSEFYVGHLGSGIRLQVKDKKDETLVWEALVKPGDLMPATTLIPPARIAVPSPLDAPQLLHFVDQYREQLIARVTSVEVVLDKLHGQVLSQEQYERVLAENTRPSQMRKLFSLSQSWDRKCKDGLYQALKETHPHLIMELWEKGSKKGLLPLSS
Assay: co-IP
Details: remark: other sources report otherwise

- fold reduction of binding with VbP (10 uM, in the lysate) against DMSO: 2 fold
B1: endogenous DPP9, Q86TI2 1-863 (enzyme)
chain: MATTGTPTADRGDAAATDDPAARFQVQKHSWDGLRSIIHGSRKYSGLIVNKAPHDFQFVQKTDESGPHSHRLYYLGMPYGSRENSLLYSEIPKKVRKEALLLLSWKQMLDHFQATPHHGVYSREEELLRERKRLGVFGITSYDFHSESGLFLFQASNSLFHCRDGGKNGFMVSPMKPLEIKTQCSGPRMDPKICPADPAFFSFINNSDLWVANIETGEERRLTFCHQGLSNVLDDPKSAGVATFVIQEEFDRFTGYWWCPTASWEGSEGLKTLRILYEEVDESEVEVIHVPSPALEERKTDSYRYPRTGSKNPKIALKLAEFQTDSQGKIVSTQEKELVQPFSSLFPKVEYIARAGWTRDGKYAWAMFLDRPQQWLQLVLLPPALFIPSTENEEQRLASARAVPRNVQPYVVYEEVTNVWINVHDIFYPFPQSEGEDELCFLRANECKTGFCHLYKVTAVLKSQGYDWSEPFSPGEDEFKCPIKEEIALTSGEWEVLARHGSKIWVNEETKLVYFQGTKDTPLEHHLYVVSYEAAGEIVRLTTPGFSHSCSMSQNFDMFVSHYSSVSTPPCVHVYKLSGPDDDPLHKQPRFWASMMEAASCPPDYVPPEIFHFHTRSDVRLYGMIYKPHALQPGKKHPTVLFVYGGPQVQLVNNSFKGIKYLRLNTLASLGYAVVVIDGRGSCQRGLRFEGALKNQMGQVEIEDQVEGLQFVAEKYGFIDLSRVAIHGWSYGGFLSLMGLIHKPQVFKVAIAGAPVTVWMAYDTGYTERYMDVPENNQHGYEAGSVALHVEKLPNEPNRLLILHGFLDENVHFFHTNFLVSQLIRAGKPYQLQIYPNERHSIRCPESGEHYEVTLLHFLQEYL
